Source: PMC11772769, “Selective cargo and membrane recognition by SNX17 regulates its interaction with Retriever” (EMBO Reports, 2024)

Target: T1, Peptide SNX17_(CT-18), Q15036
T1 chain: ASDVHGNFAFEGIGDEDL
Assay: fluorescence anisotropy
Details: chain shown with the change; 5-FAM-labeled SNX17CT-18 peptide; parent: LB

B1: MBP-SNX17 (full-length, wild-type), Q15036 N459A; F462A (protein)
chain: MHFSIPETESRSGDSGGSAYVAYNIHVNGVLHCRVRYSQLLGLHEQLRKEYGANVLPAFPPKKLFSLTPAEVEQRREQLEKYMQAVRQDPLLGSSETFNSFLRRAQQETQQVPTEEVSLEVLLSNGQKVLVNVLTSDQTEDVLEAVAAKLDLPDDLIGYFSLFLVREKEDGAFSFVRKLQEFELPYVSVTSLRSQEYKIVLRKSYWDSAYDDDVMENRVGLNLLYAQTVSDIERGWILVTKEQHRQLKSLQEKVSKKEFLRLAQTLRHYGYLRFDACVADFPEKDCPVVVSAGNSELSLQLRLPGQQLREGSFRVTRMRCWRVTSSVPLPSGSTSSPGRGRGEVRLELAFEYLMSKDRLQWVTITSPQAIMMSICLQSMVDELMVKKSGGSIRKMLRRRVGGTLRRSDSQQAVKSPPLLESPDATRESMVKLSSKLSAVSLRGIGSPSTDASASDVHGAFAAEGIGDEDL
B1 was tested, and the Kd was 86 µM.
